In patent US20250290928A1, “METHOD, KIT AND DEVICE FOR DETECTING EXTRACELLULAR VESICLES” (priority 2022, published 2025):
No end group written: not given here. *: point of attachment. 5FAM = O=C1OC2(c3ccc(O)cc3Oc3cc(O)ccc32)c2ccc(C(=O)*)cc21; TQ2 = quencher; TQ3 = quencher

Columns and labels:
[1] = target: T1, MMP14 in the MDA-MB-231-derived extracellular vesicles (Homo sapiens, UniProt P50281); experiment: Evaluation of MMP14 activity of MDA-MB-231-derived extracellular vesicles with 96-well plate; assay type: biochemical; details: for reaction rate per 1 μg/mL of extracellular vesicles: within 1 hour
T1 construct: in terms of intact MMP14 with a molecular weight of 70 kDa
Description: A relative fluorescence unit difference ΔRFU was calculated by subtracting the measured value of the sample for BG measurement from the measured value of each of the samples.
The concentration of the solution is 41.7 μg/mL. The concentration of the solution was set to x1, and 2-fold serial dilution was performed to prepare standard samples with six concentrations.
50 μL of the MMP14 detection solution was added to 50 μL of each of the samples, a reaction was performed at 37° C., and MMP14 activity was evaluated.
The concentration of the solution is 10 μg/mL.
50 μL of each of the MMP14 detection solutions was added to 50 μL of each of the samples, a reaction was performed at 37° C., and MMP14 activity was evaluated. […]
The concentration of the solution is 20 μg/mL. The concentration of the solution was set to x1, and 3-fold serial dilution was performed to prepare standard samples with three concentrations.
The concentration of the solution is 8 μg/mL.
50 μL of each of the MMP14 detection solutions was added to 50 μL of the sample, a reaction was performed at 37° C., and MMP14 activity was evaluated. […]
50 μL of the MMP14 detection solution was added to 50 μL of each of the samples, a reaction was performed at 30° C., and MMP14 activity was evaluated.
The MMP14 activity of the extracellular vesicles was evaluated with a 96-well plate (137101). A fluorescence intensity was measured with a fluorescence plate reader (Synergy) at 30° C. every 5 minutes for 2 hours. For measurement wavelengths, an excitation wavelength of 545±20 nm and a fluorescence wavelength of 588±20 nm were used. A relative fluorescence unit difference (ΔRFU) was calculated by subtracting the measured value of the sample for BG measurement from the measured value of each of the samples.
50 μL of each of the MMP14 detection solutions was added to 50 μL of each of the samples, a reaction was performed at 30° C., and MMP14 activity was evaluated.

[2] = target: T1, MMP14 in the MDA-MB-231-derived extracellular vesicles; experiment: Digital detection of MDA-MB-231-derived extracellular vesicles through MMP14 activity in wells (microcompartments); assay type: biochemical; details: for Expected value λ (×1): at EV concentration x1
Description: The concentration of the solution is 6.7 μg/mL.
100 μL of the MMP14 detection solution was added to 100 μL of the sample to provide a reaction solution for wells. […] 100 μL of 200 μL of the prepared reaction solution for wells was used in the measurement of MMP14 activity with a 96-well plate.
Next, the wells were filled with the reaction solution by leaving the well array 200 to stand under reduced pressure to degas the space 205. After that, the space 205 was fed with hydrophobic solvents to be sealed. Fluorinated oils AsahiKlin AE-3000 (manufactured by AGC Inc.) and Fomblin Y-25 (manufactured by Solvay S.A.) were used as the hydrophobic solvents. A fluorinated oil Simoa (trademark) SR-X Sealing Oil: 102767 (manufactured by Quanterix Corporation) was further used as another hydrophobic solvent.
Well diameter: 4.25 μm Well depth: 3.25 μm Well capacity: 50 fL Number of wells in array: 239,000 Array range: 3 mm×4 mm
The concentration of the solution is 20 μg/mL. […] The concentration of the solution was set to x1, and 10-fold serial dilution was performed to prepare standard samples with five concentrations.
Next, the wells were filled with the reaction solution by leaving the well array 200 to stand under reduced pressure to degas the space 205. After that, the space 205 was fed with hydrophobic solvents to be sealed.
The concentration of the solution is 20 μg/mL. […] The concentration of the solution was set to x1, and 3-fold serial dilution was performed to prepare standard samples with three concentrations.
The concentration of the solution is 20 μg/mL. […] The concentration of the solution was set to x1, and 2-fold serial dilution was performed to prepare standard samples with four concentrations.
The concentration of the solution is 5 μg/mL.
50 μL of the MMP14 detection solution was added to 50 μL of the sample to provide a reaction solution for wells.
50 μL of each of the MMP14 detection solutions was added to 50 μL of the sample to provide a reaction solution for wells.
The concentration of the solution is 6.7 µg/mL.

[3] = Example 42, EV 2.5 μg/mL, reporter 5 μM, 30° C., 4 hr, TRITC filter
[4] = Example 42, EV 2.5 μg/mL, reporter 5 μM, 30° C., 24 hr, TRITC filter
[5] = Example 9, EV 4 μg/mL, buffer (3), 37° C., Lineweaver-Burk plots
[6] = Example 18, 78.5 fL wells, EV 3.3 μg/mL, reporter 5 μM, 37° C., 3 hours, oil AE-3000 and Y25
[7] = Example 18, 78.5 fL wells, EV 3.3 μg/mL, reporter 5 μM, 37° C., 3 hours, oil Simoa
[8] = Example 19, 37° C., 3 h, EV 0.0001 a.u. (x1=10 μg/mL)
[9] = Example 19, 37° C., 3 h, EV 0.001 a.u. (x1=10 μg/mL)
[10] = Example 19, 37° C., 3 h, EV 0.01 a.u. (x1=10 μg/mL)
[11] = Example 19, 37° C., 3 h, EV 0.1 a.u. (x1=10 μg/mL)
[12] = Example 19, 37° C., 3 h, EV 1 a.u. (x1=10 μg/mL)
[13] = Example 19, 37° C., 7 h, EV 0.0001 a.u. (x1=10 μg/mL)
[14] = Example 19, 37° C., 7 h, EV 0.001 a.u. (x1=10 μg/mL)
[15] = Example 19, 37° C., 7 h, EV 0.01 a.u. (x1=10 μg/mL)
[16] = Example 19, 37° C., 7 h, EV 0.1 a.u. (x1=10 μg/mL)
[17] = Example 19, 37° C., 7 h, EV 1 a.u. (x1=10 μg/mL)
[18] = Example 22, buffer (2), 37° C., 1 h, EV 0 (free of extracellular vesicles)
[19] = Example 22, buffer (2), 37° C., 1 h, EV 0.111 a.u.
[20] = Example 22, buffer (2), 37° C., 1 h, EV 0.333 a.u.
[21] = Example 22, buffer (2), 37° C., 1 h, EV 1 a.u. (x1=10 μg/mL)
[22] = Example 22, buffer (2), 37° C., 2 h, EV 0 (free of extracellular vesicles)
[23] = Example 22, buffer (2), 37° C., 2 h, EV 0.111 a.u.
[24] = Example 22, buffer (2), 37° C., 2 h, EV 0.333 a.u.
[25] = Example 22, buffer (2), 37° C., 2 h, EV 1 a.u. (x1=10 μg/mL)

TAMRA-GGPLGLAGGK(TQ3) ({TAMRA}-GGPLGLAGGK(TQ3)) [Custom #2T]
Fluorescence change after 2 hours of reaction at 30° C. ([1]; Example 41, EV 5 μg/mL, reporter 5 μM, buffer (4), excitation 545±20 nm, fluorescence 588±20 nm): 6,455 ΔRFU
Fluorescence change after 2 hours of reaction at 30° C. ([1]; MP, 1.25 μM #2T with 1.25 μM #1, EV 3.3 μg/mL): 1,015 ΔRFU
Fluorescence change after 2 hours of reaction at 30° C. ([1]; MP, 1.25 μM #2T with 1.25 μM #2, EV 3.3 μg/mL): 1,734 ΔRFU
Fluorescence change after 2 hours of reaction at 30° C. ([1]; MP, 2.5 μM #2T with 2.5 μM #1, EV 3.3 μg/mL): 1,118 ΔRFU
Fluorescence change after 2 hours of reaction at 30° C. ([1]; MP, 2.5 μM #2T with 2.5 μM #2, EV 3.3 μg/mL): 2,196 ΔRFU
Expected value λ [2, 3]: 0.1255
Number of positives [2, 3]: 3,313
Positive ratio [2, 3]: 0.118
Expected value λ [2, 4]: 0.1339
Number of positives [2, 4]: 3,518
Positive ratio [2, 4]: 0.1253
Expected value λ (×1) ([2]; single reporter, reaction 4 hr): 0.5022
Extracellular vesicle concentration ([2]; single reporter, reaction 4 hr, at x1, from λ (×1) and 50 fL microcompartment): 1.0044e+10 mL⁻¹
Expected value λ (×1) ([2]; single reporter, reaction 24 hr): 0.5354
Extracellular vesicle concentration ([2]; single reporter, reaction 24 hr, at x1, from λ (×1) and 50 fL microcompartment): 1.0709e+10 mL⁻¹

[5-FAM]GGPLGLAGGK(TQ2)[OH] (5FAM-GGPLGLAGGK(TQ2)-OH) [Custom #2]
increase in fluorescence intensity (temporal change) ([1]; Example 4, EV 5 μg/mL, reporter 5 μM, 37° C., Assay buffer (Component D)): more significant than that from SensoLyte 520 MMP-14
reaction rate per 1 μg/mL of extracellular vesicles ([1]; Example 5, Assay buffer (Component D) of SensoLyte 520 MMP-14 Assay Kit, reporter 5 μM, 37° C.): 83.3 ΔRFU/min
reaction rate per 1 μg/mL of extracellular vesicles ([1]; Example 8, buffer (2), reporter 5 μM, 37° C.): 99.0 ΔRFU/min
Km [1, 5]: 511 nM
Vmax [1, 5]: 582.411 ΔRFU/min
extracellular vesicle concentration at which MMP14 activity was able to be detected with a 96-well plate ([1]; buffer (4), reporter 5 μM, 37° C.): ≥ 1 µg/mL
Expected value λ [2, 6]: 0.235
Number of positives [2, 6]: 3,094
Positive ratio [2, 6]: 0.21
Expected value λ [2, 7]: 0.188
Number of positives [2, 7]: 2,529
Positive ratio [2, 7]: 0.171
Extracellular vesicle concentration ([2]; Example 18, oil AE-3000 and Y25): 9.1×10^8 /μg of protein
Extracellular vesicle concentration ([2]; Example 18, oil AE-3000 and Y25, reaction solution 3.3 μg of protein/mL): 3e+09 mL⁻¹
Extracellular vesicle concentration ([2]; Example 18, oil Simoa): 7.3×10^8 /μg of protein
Extracellular vesicle concentration ([2]; Example 18, oil Simoa, reaction solution 3.3 μg of protein/mL): 2.4e+09 mL⁻¹
Expected value λ [2, 8]: 0.000138
Number of positives [2, 8]: 4
Positive ratio [2, 8]: 0.000138
Expected value λ [2, 9]: 0.0011
Number of positives [2, 9]: 32
Positive ratio [2, 9]: 0.0011
Expected value λ [2, 10]: 0.00915
Number of positives [2, 10]: 264
Positive ratio [2, 10]: 0.00911
Expected value λ [2, 11]: 0.0827
Number of positives [2, 11]: 2,305
Positive ratio [2, 11]: 0.0794
Expected value λ [2, 12]: 0.717
Number of positives [2, 12]: 14,539
Positive ratio [2, 12]: 0.512
Expected value λ [2, 13]: 0.000104
Number of positives [2, 13]: 3
Positive ratio [2, 13]: 0.000104
Expected value λ [2, 14]: 0.000828
Number of positives [2, 14]: 24
Positive ratio [2, 14]: 0.000828
Expected value λ [2, 15]: 0.0092
Number of positives [2, 15]: 263
Positive ratio [2, 15]: 0.00916
Expected value λ [2, 16]: 0.0929
Number of positives [2, 16]: 2,571
Positive ratio [2, 16]: 0.0887
Expected value λ [2, 17]: 2.33
Number of positives [2, 17]: 26,093
Positive ratio [2, 17]: 0.902
Extracellular vesicle concentration ([2]; Example 19, 3 hours): 1.3×10^9 /μg of protein
Extracellular vesicle concentration ([2]; Example 19, 3 hours, reaction solution 10 μg of protein/mL, 50 fL): 1.3e+10 mL⁻¹
extracellular vesicles in which MMP14 activity can be detected, contained in 1 μL of the extracellular vesicles (50 μg of protein in 50 μL of PBS) ([2]; Example 19, 7 hours): 1.8×10^9
Extracellular vesicle concentration ([2]; Example 19, 7 hours, reaction solution 10 μg of protein/mL, 50 fL): 1.8e+10 mL⁻¹
λ at x1 from the approximation ([2]; Example 19, reaction time of 3 hours): 0.6727
λ at x1 from the approximation ([2]; Example 19, reaction time of 7 hours): 0.8756
expected value λ at x1 (power approximation) ([2]; Example 22, after 1 hour): 0.5098
expected value λ at x1 (power approximation) ([2]; Example 22, after 2 hours): 0.7649
Expected value λ [2, 18]: 0
Number of positives [2, 18]: 0
Positive ratio [2, 18]: 0
Expected value λ [2, 19]: 0.0648
Number of positives [2, 19]: 1,819
Positive ratio [2, 19]: 0.0627
Expected value λ [2, 20]: 0.193
Number of positives [2, 20]: 5,094
Positive ratio [2, 20]: 0.176
Expected value λ [2, 21]: 0.497
Number of positives [2, 21]: 11,360
Positive ratio [2, 21]: 0.392
Expected value λ [2, 22]: 0
Number of positives [2, 22]: 0
Positive ratio [2, 22]: 0
Expected value λ [2, 23]: 0.0988
Number of positives [2, 23]: 2,727
Positive ratio [2, 23]: 0.0941
Expected value λ [2, 24]: 0.267
Number of positives [2, 24]: 6,788
Positive ratio [2, 24]: 0.234
Expected value λ [2, 25]: 0.774
Number of positives [2, 25]: 15,608
Positive ratio [2, 25]: 0.539
extracellular vesicle concentration at which MMP14 activity was able to be detected in the microcompartments ([2]; Simoa Discs, buffer (4), reporter 5 μM, 37° C.): ≥ 1 ng/mL
